Laboratory results as given in patent US20240382614A1, “Self-Assembling Nanoparticles Based On Amphiphilic Peptides for Drug Delivery Applications” (Barinthus Biotherapeutics North America, Inc., priority 2021, published 2024).
Values belong to the molecule of their own block, whether it stands above or below them.

Experiments:
[1] = test system: coculture of antigen presenting cells and CD4 T cell clones (“OT-II cells”); assay: IFNγ and IL-17 in supernatant of coculture of antigen presenting cells and OT-II CD4 T cell clones; type: cell-based; settings: D1 in particles of Compound 113 with D2 Compound 166, with or without D3 Compound 4 (Table 10)
Procedure: The cell culture supernatant was assessed for the cytokines IFNγ and IL-17 to assess for the proliferation of Th1- and Th17-type CD4 T cells, respectively (FIG. 11).

[2] = Turbidity (OD 490 nm) of particle formulations; type: physicochemical; settings: Table 15; no 2nd amphiphile
Procedure: It was unknown how the surface group (SG) would impact the tolerability of amphiphiles of formula S-B-H-D carrying an immunostimulant. Therefore, to evaluate the impact of surface group composition on tolerability, amphiphiles of varying SG and drug molecule composition were prepared and evaluated in mice (Table 15 and FIG. 14).

[3] = Solubility and loading of mTOR inhibitors in nanoparticle micelles of amphiphiles S-B-[U]-H; type: physicochemical; settings: admixed with amphiphile Compound 113
[4] = test system: coculture of antigen presenting cells and CD4 T cell clones (“OT-II cells”); assay: CD4 T cell induction in coculture of antigen presenting cells and OT-II CD4 T cell clones; type: cell-based; settings: D1 in particles of Compound 113 with D2 Compound 166 and D3 MDP, TDB, MPL, LPS or Compound 4 (Table 9, FIG. 10)
[5] = test system: T1, Ac-A′VnL-AMC (Compound 20)
T1 sequence: XVX

[6] = test system: T2, Ac-A′SK(Ac)SnL-AMC (Compound 24)
T2 sequence: XSKSX

[7] = test system: T3, Ac-A′SKVnL-AMC (Compound 23)
T3 sequence: XSKVX

[8] = test system: T4, Ac-A′SK(Ac)VnL-AMC (Compound 22)
T4 sequence: XSKVX

[9] = test system: T5, Ac-A′SK(Ac)SB-AMC (Compound 18)
T5 sequence: XSKSX

[10] = test system: T6, Ac-A′SPVB-AMC (Compound 15)
T6 sequence: XSPVX

[11] = test system: T7, Ac-A′SKSnL-AMC (Compound 25)
T7 sequence: XSKSX

[12] = test system: T8, Ac-A′SKVB-AMC (Compound 17)
T8 sequence: XSKVX

[13] = test system: T9, Ac-A′SK(Ac)VB-AMC (Compound 16)
T9 sequence: XSKVX

[14] = test system: T10, Ac-A′VB-AMC (Compound 14)
T10 sequence: XVX

[15] = test system: T11, Ac-A′SKSB-AMC (Compound 19)
T11 sequence: XSKSX

[16] = test system: T12, Ac-A′SPVnL-AMC (Compound 21)
T12 sequence: XSPVX

Molecule: COc1ccc(-c2ccc3c(N4CCOC[C@@H]4C)nc(N4CCOC[C@@H]4C)nc3n2)cc1CO [AZD8055]
- suppression of Th1-type CD4 T cell response (IFNγ) [1]: substantially improved T cell response suppression as compared with Rapa, CC223 and OSI-027

- Turbidity [2]: 0.039
Molecule: CCOCc1nc2c(N)nc3ccccc3c2n1CC(C)(C)O [Compound R848]

Molecule: CC(C)n1nc(-c2ccc3oc(N)nc3c2)c2c(N)ncnc21 [INK-128]
- suppression of Th1-type CD4 T cell response (IFNγ) [1]: substantially improved T cell response suppression as compared with Rapa, CC223 and OSI-027

- solubility in DMSO and aqueous buffer [3]: markedly improved the solubility
Molecule: CCC(=O)N1CCN(c2ccc(-n3c(=O)ccc4cnc5ccc(-c6cnc7ccccc7c6)cc5c43)cc2C(F)(F)F)CC1 [Torin 1]
- suppression of T cell responses against D2 [4]: greater T cell suppression as compared with Rapamycin
- suppression of Th1-type CD4 T cell response (IFNγ) [1]: substantially improved T cell response suppression as compared with Rapa, CC223 and OSI-027

Molecule: CNC(=O)Nc1ccc(-c2nc(N3CC4CCC(C3)O4)c3cnn(C4CCC5(CC4)OCCO5)c3n2)cc1 [WYE132]
- suppression of Th1-type CD4 T cell response (IFNγ) [1]: substantially improved T cell response suppression as compared with Rapa, CC223 and OSI-027

Molecule: Cathepsin B (Sino Biological)
- percent of peptide-AMC that is cleaved [5]: norleucine (nL) and alpha-amino butyric (B or aBut) are tolerated at the P1 position
- percent of peptide-AMC that is cleaved [6]: norleucine (nL) and alpha-amino butyric (B or aBut) are tolerated at the P1 position
- percent of peptide-AMC that is cleaved [7]: norleucine (nL) and alpha-amino butyric (B or aBut) are tolerated at the P1 position
- percent of peptide-AMC that is cleaved [8]: norleucine (nL) and alpha-amino butyric (B or aBut) are tolerated at the P1 position
- percent of peptide-AMC that is cleaved [9]: norleucine (nL) and alpha-amino butyric (B or aBut) are tolerated at the P1 position
- percent of peptide-AMC that is cleaved [10]: norleucine (nL) and alpha-amino butyric (B or aBut) are tolerated at the P1 position
- percent of peptide-AMC that is cleaved [11]: norleucine (nL) and alpha-amino butyric (B or aBut) are tolerated at the P1 position
- percent of peptide-AMC that is cleaved [12]: norleucine (nL) and alpha-amino butyric (B or aBut) are tolerated at the P1 position
- percent of peptide-AMC that is cleaved [13]: norleucine (nL) and alpha-amino butyric (B or aBut) are tolerated at the P1 position
- percent of peptide-AMC that is cleaved [14]: norleucine (nL) and alpha-amino butyric (B or aBut) are tolerated at the P1 position
- percent of peptide-AMC that is cleaved [15]: norleucine (nL) and alpha-amino butyric (B or aBut) are tolerated at the P1 position
- percent of peptide-AMC that is cleaved [16]: norleucine (nL) and alpha-amino butyric (B or aBut) are tolerated at the P1 position
